From paper PMC4377584, “Sestrin2 inhibits mTORC1 through modulation of GATOR complexes” (Scientific Reports, 2015) come the findings set out here.

The target of the assay is T1, HA-GATOR2 (UniProt Q9NXC5 1-875; Q96S15 1-790; Q6PJI9 1-974; Q96EE3 1-360; P55735 1-322).
T1 construct: MIOS; WDR24; WDR59; SEH1L; SEC13; that every subunit carried the HA tag is read from the name HA-GATOR2; also called immunopurified GATOR2 protein components; purified GATOR2; source: HEK293, transfected, immunopurified (anti-HA agarose beads, HA peptide); copies: + + + +
Description: pull-down; in vitro: purified proteins mixed in 20 ul buffer A (30 mM Tris-HCl pH8.0, 100 mM NaCl, 1 mM TCEP), incubated overnight with antibodies against the target protein, protein G/A bead, immunoblot; 1 ug Sestrin2; in Fig. 2D GATOR1 pulled down with NPRL2 antibody and detection with HA antibody. The conditions noted are these: both partners purified. On the technique in general: A western blot detects proteins with antibodies after separation by electrophoresis.

B1: Recombinant Sestrin2 (natural protein, UniProt P58004 1-480, looked up)
chain: MIVADSECRAELKDYLRFAPGGVGDSGPGEEQRESRARRGPRGPSAFIPVEEVLREGAESLEQHLGLEALMSSGRVDNLAVVMGLHPDYFTSFWRLHYLLLHTDGPLASSWRHYIAIMAAARHQCSYLVGSHMAEFLQTGGDPEWLLGLHRAPEKLRKLSEINKLLAHRPWLITKEHIQALLKTGEHTWSLAELIQALVLLTHCHSLSSFVFGCGILPEGDADGSPAPQAPTPPSEQSSPPSRDPLNNSGGFESARDVEALMERMQQLQESLLRDEGTSQEEMESRFELEKSESLLVTPSADILEPSPHPDMLCFVEDPTFGYEDFTRRGAQAPPTFRAQDYTWEDHGYSLIQRLYPEGGQLLDEKFQAAYSLTYNTIAMHSGVDTSVLRRAIWNYIHCVFGIRYDDYDYGEVNQLLERNLKVYIKTVACYPEKTTRRMYNLFWRHFRHSEKVHVNLLLLEARMQAALLYALRAITRYMT
notes: Full-length Sestrin2 cDNA; also called Sestrin2 protein; purified Sestrin2; source: Rosetta (DE3) pLysS E. coli, purified (Ni-NTA, amylase resin, TEV, HiTrap Q, Superdex 200); not shown: His6, N-terminal, cleaved; MBP, N-terminal, cleaved
With B1, the binding result is given as “binds”.
